These results are taken from article PMC8237704.

The assay addresses GluN1 NMDA receptor subunit, isoform GluN1-2a, with a fluorescent protein on the C-terminus (GluN1-GFP; GluN1-mCherry). The assay is described as follows: FRET or BRET. (Bioluminescence resonance energy transfer reports proximity on the nanometre scale.)

“GluN1 NMDA receptor subunit, isoform GluN1-2a, with a fluorescent protein on the C-terminus (GluN1-GFP; GluN1-mCherry)” yielded an FRET efficiency of 5.8%.
